# Assay results: US7037670B2, “Peptide substrates for assay of extracellular signal-regulated protein kinase 1 and 2 activity” (Board of Supervisors of Louisiana State University and …, priority 2002, dated 2006)
# Read-outs that look alike come from different tables or passages of the source. Ends that are not written are not given here.
# Tests used:
# [1] = molecular target: T1, ERK2 (Rattus norvegicus, UniProt P63086); test: Phosphorylation of TH Ser31-containing peptides by purified, recombinant, activated ERK2; assay type: biochemical; conditions: for RELATIVE 32P INCORPORATION (% 3.0 μmol/min/mg) Mean: mean of four determinations; for RELATIVE 32P INCORPORATION (% 3.3 μmol/min/mg): substrate 1 mM, median of three determinations
# Description: Materials: Purified peptides were obtained from Sigma (St. Louis, Mo.) or custom synthesized by Louisiana State University Health Science Center Core Laboratories (New Orleans La.). Purified, activated ERK1 was a gift from Dr. M. H. Cobb (University of Texas Southwestern Medical Center, Dallas, Tex.). Purified, recombinant, activated ERK2 was a gift from Dr. N. G. Ahn (University of Colorado, Boulder, Colo.). Except as indicated below, other materials were purchased from Sigma. The new synthetic peptides modeled after […] in human tyrosine hydroxylase are indicated. ERK activity assays: Aliquots of supernatants or ERK1/2 immunoprecipitates (suspended in lysis solution) were mixed with substrate (1 mM final, unless stated otherwise) at 4° C. Phosphorylation reactions were initiated by addition of an equal volume of assay buffer containing [γ-^32P]ATP (NEN Life Sciences Products, now PerkinElmer Life Sciences, Boston, Mass.) and Mg^++ and allowed to proceed for 10 min at 30° C., after which duplicate 20 μl aliquots were spotted onto Whatman P81 paper. As would be predicted by the presence of multiple basic residues in the peptides, the ability of P81 paper to bind >90% of each of the peptides used in Tables 2 and 3 was confirmed by UV detection following RP-HPLC. The final reaction mixtures (50 μl) contained 50 mM β-glycerophosphate, 10 mM MgCl2, 1 mM EGTA, 1 mM dithiothreitol, 1 mM benzamidine, 0.1 mM ATP, 0.1 mM Na3VO4, 10 μM calmidazolium, 2 μM peptide inhibitor of cyclic AMP-dependent protein kinase ([…] ID NO: 24), 10 μg/ml leupeptin, and 0.025% Tween 20. Table 3 indicates the relative phosphorylation of TH-[…]-containing peptides by purified ERK2. […] These new substrates were assayed for the relative phosphorylation by purified ERK2 similar to the experiments that generated Table 3.
# [2] = molecular target: ERK1 (Rattus norvegicus, UniProt P21708); test: Phosphorylation of substrates by purified, activated ERK1 (32P incorporation, P81 paper); assay type: biochemical; conditions: for RELATIVE 32P INCORPORATION (% OF MBP): peptides 1 mM, MBP 20 μM, 10 min at 30° C., median of three determinations
# Description: Materials: Purified peptides were obtained from Sigma (St. Louis, Mo.) or custom synthesized by Louisiana State University Health Science Center Core Laboratories (New Orleans La.). Purified, activated ERK1 was a gift from Dr. M. H. Cobb (University of Texas Southwestern Medical Center, Dallas, Tex.). Purified, recombinant, activated ERK2 was a gift from Dr. N. G. Ahn (University of Colorado, Boulder, Colo.). Except as indicated below, other materials were purchased from Sigma. The new synthetic peptides modeled after Ser31 in human tyrosine hydroxylase are indicated.
# (§1) ERK activity assays: Aliquots of supernatants or ERK1/2 immunoprecipitates (suspended in lysis solution) were mixed with substrate (1 mM final, unless stated otherwise) at 4° C. Phosphorylation reactions were initiated by addition of an equal volume of assay buffer containing [γ-^32P]ATP (NEN Life Sciences Products, now PerkinElmer Life Sciences, Boston, Mass.) and Mg^++ and allowed to proceed for 10 min at 30° C., after which duplicate 20 μl aliquots were spotted onto Whatman P81 paper. As would be predicted by the presence of multiple basic residues in the peptides, the ability of P81 paper to bind >90% of each of the peptides used in Tables 2 and 3 was confirmed by UV detection following RP-HPLC. The final reaction mixtures (50 μl) contained 50 mM β-glycerophosphate, 10 mM MgCl2, 1 mM EGTA, 1 mM dithiothreitol, 1 mM benzamidine, 0.1 mM ATP, 0.1 mM Na3VO4, 10 μM calmidazolium, 2 μM peptide inhibitor of cyclic AMP-dependent protein kinase ([…], SEQ ID NO: 24), 10 μg/ml leupeptin, and 0.025% Tween 20.
# To test the effectiveness of various peptide substrates, peptide substrates were compared with myelin basic protein (“MBP,” SEQ ED NO: 1) for relative ability to be phosphorylated by purified ERK1 or ERK2. The ERK activity assay was as described above in Example 1. In Table 2, each value represents the median of three independent determinations, performed in duplicate. While all peptides were assayed at a concentration of 1 mM, MBP phosphorylation—given as a frame of reference at a concentration typically used in such assays—was assayed at 20 μM. ^32P incorporation into MBPtide (SEQ ID NO: 2) was 330 nmol/min/mg under the assay conditions used.
# [3] = molecular target: T1, ERK2; test: Steady-state kinetic analyses of peptide substrates for ERK2; assay type: biochemical; conditions: for Kmin(app) / Vmax(app) Relative: median of three determinations; for Vmax(app) Relative: relative values
# Experimental: as §1
# In Table 5, each value represents the median of three independent determinations, performed in duplicate. […] See I. Kameshita et al., 1997. […] 355, pp. 5641-5646 (1996); see also C. N. Prowse et al., “Catalytic reaction pathway for the mitogen-activated protein kinase ERK2,” Biochem., vol. 39, pp. 6258-6266 (2000).
# [4] = tested on: ERK1/2; test: In vitro kinase assay on PC12 cellular extracts with no further purification (with and without nerve growth factor); assay type: biochemical, rat; conditions: for pattern and degree of ERK activation over time compared with ERK immunoprecipitation and blot immunolabeling assays: PC12 cells with and without NGF, up to 480 min, extracts without purification; for levels of protein kinase activity in cellular extracts: PC12 extracts, no kinase purification, EGTA, calmidazolium, cAMP-dependent protein kinase inhibitor present
# Experimental: Cells were treated with or without added 100 ng/ml 7S nerve growth factor for up to 8 h. One group of cells was harvested for blot immunolabeling and solubilized with sodium dodecyl sulfate solution, as described in J. W. Haycock, “Multiple forms of tyrosine hydroxylase in human neuroblastoma cells: Quantitation with isoform-specific antibodies,” J. Neurochem., vol. […] A second group of cells was harvested for kinase assays and subjected to trituration in an ice-cold lysis solution of 50 mM β-glycerophosphate, 1 mM EGTA, 1 mM dithiothreitol, 1 mM benzamidine (Eastman Kodak Co., Rochester, N.Y.), 0.1 mM Na3VO4, 10 μg/ml leupeptin, and 0.05% Tween 20. Supernatants from the latter samples were generated by sonication and centrifugation (20 min at 10,000×g) in a refrigerated centrifuge (Savant, Farmingdale, N.J.). In some experiments, ERK1/2 was isolated prior to assaying kinase activity by immunoprecipitation of the PC12 cellular extracts with anti-pan ERK1/2 and protein A-Sepharose. […] ERK activity assays: Aliquots of supernatants or ERK1/2 immunoprecipitates (suspended in lysis solution) were mixed with substrate (1 mM final, unless stated otherwise) at 4° C. Phosphorylation reactions were initiated by addition of an equal volume of assay buffer containing [γ-^32P]ATP (NEN Life Sciences Products, now PerkinElmer Life Sciences, Boston, Mass.) and Mg^++ and allowed to proceed for 10 min at 30° C., after which duplicate 20 μl aliquots were spotted onto Whatman P81 paper. […] Experiments were conducted to test the ability of different substrates to assay for activation of ERK1/2 in situ. […] Cells were harvested and-assayed for ERK1/2 activity by various methods.
# [5] = molecular target: T1, ERK2; conditions: described previously by Robinson et al., 1996; cited from earlier work
# [6] = tested on: MAP kinase; conditions: reported, Kameshita et al., 1997; cited from earlier work
# [7] = molecular target: T1, ERK2; conditions: stated for MBP protein as contrast to the peptides; cited from earlier work
# ERK1, sequence (P21708 2-380 limits assumed): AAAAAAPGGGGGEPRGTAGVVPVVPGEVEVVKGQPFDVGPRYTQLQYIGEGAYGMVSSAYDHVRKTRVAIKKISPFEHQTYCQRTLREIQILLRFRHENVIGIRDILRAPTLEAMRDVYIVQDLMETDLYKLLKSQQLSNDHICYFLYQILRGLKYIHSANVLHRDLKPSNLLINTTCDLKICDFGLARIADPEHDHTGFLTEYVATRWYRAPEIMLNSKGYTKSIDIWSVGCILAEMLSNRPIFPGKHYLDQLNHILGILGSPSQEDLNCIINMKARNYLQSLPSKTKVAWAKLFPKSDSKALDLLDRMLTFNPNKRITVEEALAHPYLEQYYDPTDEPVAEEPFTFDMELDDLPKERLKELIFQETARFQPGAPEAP
# T1 sequence (P63086 2-358 limits assumed): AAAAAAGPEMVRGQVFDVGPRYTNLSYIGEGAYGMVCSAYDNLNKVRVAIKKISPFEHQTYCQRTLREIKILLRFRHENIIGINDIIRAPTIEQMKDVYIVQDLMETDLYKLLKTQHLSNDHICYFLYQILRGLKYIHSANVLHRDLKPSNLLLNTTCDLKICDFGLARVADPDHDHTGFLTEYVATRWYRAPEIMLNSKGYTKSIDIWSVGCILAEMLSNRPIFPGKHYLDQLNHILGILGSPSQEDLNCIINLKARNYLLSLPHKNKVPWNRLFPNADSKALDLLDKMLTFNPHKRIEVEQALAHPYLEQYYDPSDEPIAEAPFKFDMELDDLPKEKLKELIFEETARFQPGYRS
Molecule,RELATIVE 32P INCORPORATION (% 3.0 μmol/min/mg) Mean [1],RELATIVE 32P INCORPORATION (% OF MBP) [2],RELATIVE 32P INCORPORATION (% 3.3 μmol/min/mg) [1],also measured
QATGPLSPGFRR-NH2 [SEQ ID NO: 19],182 % 3.0 μmol/min/mg,–,–,–
QATGPLSPGPFRR-NH2 [SEQ ID NO: 17],143 % 3.0 μmol/min/mg,–,–,–
PTPSAPSPQPK (This sequence is TH (rat) Ser8.) [SEQ ID NO: 4],–,<1 % OF MBP,–,–
AVTSPRFIGRR (This sequence is based on TH-Ser31 (rat).) [SEQ ID NO: 8],–,–,9 % 3.3 μmol/min/mg,–
RRAVSEQDAK (This sequence is TH (rat) Ser19.) [SEQ ID NO: 5],–,<1 % OF MBP,–,–
YQAEAIMSPRFIGRRQ (This sequence is new and based on TH-31 type 1 HUMAN.) [SEQ ID NO: 13],100 % 3.0 μmol/min/mg,–,80 % 3.3 μmol/min/mg,Kmin(app) [3]: 1.0 mM; pattern and degree of ERK activation over time compared with ERK immunoprecipitation and blot immunolabeling assays [4]: faithfully reproduced
YQAEAIMSPRFIGRR-NH2 [SEQ ID NO: 14],117 % 3.0 μmol/min/mg,–,100 % 3.3 μmol/min/mg,–
EAIMSPRFK (This sequence is based on TH-31 type 1 HUMAN.) [SEQ ID NO: 10],–,–,21 % 3.3 μmol/min/mg,Kmin(app) [3]: 1.4 mM; Vmax(app) Relative [3]: 42
GRRQSLIEDAR (This sequence is TH (rat) Ser40.) [SEQ ID NO: 6],–,<1 % OF MBP,–,–
EAIMSPRFIGRR (This sequence is based on TH-31 type 1 HUMAN.) [SEQ ID NO: 12],–,–,41 % 3.3 μmol/min/mg,–
ATGPLSPGPFGRR (ATGPLSPFGRR; This sequence is ERKtide.) [SEQ ID NO: 23],–,–,–,apparent Vmax [3]: 9.4 µmol/min/mg; Kmin(app) [3]: 0.6 mM; Vmax(app) Relative [3]: 82; pattern and degree of ERK activation over time compared with ERK immunoprecipitation and blot immunolabeling assays [4]: faithfully reproduced; Km [5]: 450 µM
IMVRGQSPR (This sequence is based on TH-Ser31 type 2 HUMAN.) [SEQ ID NO: 20],–,–,1 % 3.3 μmol/min/mg,–
YIMVRGQSPR (This sequence is based on TH-Ser31 type 2 HUMAN.) [SEQ ID NO: 21],–,–,1 % 3.3 μmol/min/mg,–
RRELVEPLTPSGEA (This sequence is EGF Receptor (Thr669).) [SEQ ID NO: 3],–,13 % OF MBP,–,–
KQAEAVTSPR (This sequence is based on TH-Ser31 (rat).) [SEQ ID NO: 7],–,5 % OF MBP,7 % 3.3 μmol/min/mg,Kmin(app) [3]: 1.8 mM; Vmax(app) Relative [3]: 9
EAVTSPRFIGRR (This sequence is based on TH-Ser31 (rat).) [SEQ ID NO: 9],–,–,20 % 3.3 μmol/min/mg,–
AIMSPRFIGRR (This sequence is based on TH-31 type 1 HUMAN.) [SEQ ID NO: 11],–,–,29 % 3.3 μmol/min/mg,–
YQATGPLSPGFRR-NH2 [SEQ ID NO: 18],215 % 3.0 μmol/min/mg,–,–,–
YQATGPLSPGPFRR-NH2 [SEQ ID NO: 16],164 % 3.0 μmol/min/mg,–,–,–
APRTPGGRR (This sequence is MBPtide (Thr 97).) [SEQ ID NO: 2],–,28 % OF MBP,–,"Kmin(app) [3]: 2.0 mM; Vmax(app) Relative [3]: 46; pattern and degree of ERK activation over time compared with ERK immunoprecipitation and blot immunolabeling assays [4]: differed; levels of protein kinase activity in cellular extracts [4]: Higher levels of protein kinase activity; Km [6]: 1600 µM; 32P incorporation ([2]; peptide 1 mM, assay conditions of Table 2): 330 nmol/min/mg"
EAIMVRGQSPRFK (This sequence is based on TH-Ser31 type 2 HUMAN.) [SEQ ID NO: 22],–,–,2 % 3.3 μmol/min/mg,–
QAEAIMSPRFGRR-NH2 [SEQ ID NO: 15],107 % 3.0 μmol/min/mg,–,–,–
". . . KNIVTPRTPPPS . . . (protein, listed as Bos taurus) AAQKRPSQRSKYLASASTMDHARHGFLPRHRDTGILDSLGRFFGSDRGAPKRGSGKDGHHAARTTHYGSLPQKAQGHRPQDENPVVHFFKNIVTPRTPPPSQGKGRGLSLSRFSWGAEGQKPGFGYGGRASDYKSAHKGLKGHDAQGTLSKIFKLGGRDSRSGSPMARR",–,100 % OF MBP,–,pattern and degree of ERK activation over time compared with ERK immunoprecipitation and blot immunolabeling assays [4]: differed; levels of protein kinase activity in cellular extracts [4]: Higher levels of protein kinase activity; Km [7]: 10 to 50 µM
